Experimental data published in patent publication US20140141011A1 (SCHERING, published 2014).
Where “and” joins values, the source holds several entries; their conditions need not be identical. Equal entries are not always repeated.

B1: cy-hu: cyno-ized 23B12 VL/VH on human constant domains (antibody)
heavy: not shown
light: DIQMTQSPSSLSASVGDRVTITCRASQPISISVHWYQQKPGKAPKLLIYFASQSISGVPSRFSGSGSGTDFTLTISSLQPEDFATYYCQQTFSLPYTFGQGTKVEIKRTVAAPSVFIFPPSDEQLKSGTASVVCLLNNFYPREAKVQWKVDNALQSGNSQESVTEQDSKDSTYSLSSTLTLSKADYEKHKVYACEVTHQGLSSPVTKSFNRGEC
notes: also called cy-hu23B12; Cynoized anti hTSLP mAb 23B12 (782+hIgG1/781hukappa)
B2: Rat anti-human TSLP antibody 23B12 (antibody, V domains shown)
VH: EEKLQQSGDDLVRPGAAVKMSCKASGYIFTDYAMHWVKQRPGQGLEWIGTFIPLLDTSDYNQNFKGRATLTADKSSNTAYMELSRLTSEDSAVYYCARMGVTHSYVMDAWGQGASVTVSS
VL: DIVLTQSPATLSVTPGESVSLSCRASQPISISVHWFQQKSNESPRLLIKFASQSISGIPSRFSGSGSGTDFTLNINRVESEDFSVYYCQQTFSLPYTFGTGTKLELKR
notes: Parental rat monoclonal antibody purified from hybridoma supernatant; the rat constant regions are not (a rat IgG2a isotype control is used beside it; the VL is of the kappa subclass); also called r23B12; rat 23B12
B3: hu-cy: humanized 23B12 VL/VH on cynomolgus constant domains (antibody)
heavy: QVQLVQSGAEVKKPGASVKVSCKASGYIFTDYAMHWVRQAPGQGLEWMGTFIPLLDTSDYNQNFKGRVTMTTDTSTSTAYMELRSLRSDDTAVYYCARMGVTHSYVMDAWGQGTLVTVSSASTKGPSVFPLAPSSRSTSESTAALGCLVKDYFPEPVTVSWNSGSLTSGVHTFPAVLQSSGLYSLSSVVTVPSSSLGTQTYVCNVNHKPSNTKVDKRVEIKTCGGGSKPPTCPPCPAPELLGGPSVFLFPPKPKDTLMISRTPEVTCVVVDVSQEDPDVKFNWYVNGAEVHHAQTKPRETQYNSTYRVVSVLTVTHQDWLNGKEYTCKVSNKALPAPIQKTISKDKGQPREPQVYTLPPSREELTKNQVSLTCLVKGFYPSDIVVEWESSGQPENTYKTTPPVLDSDGSYFLYSKLTVDKSRWQQGNVFSCSVMHEALHNHYTQKSLSLSPGK
light: EIVLTQSPGTLSLSPGERATLSCRASQPISISVHWYQQKPGQAPRLLIYFASQSISGIPDRFSGSGSGTDFTLTISRLEPEDFAVYYCQQTFSLPYTFGQGTKVEIKRTVAAPSVFIFPPSEDQVKSGTVSVVCLLNNFYPREASVKWKVDGVLKTGNSQESVTEQDSKDNTYSLSSTLTLSSTDYQSHNVYACEVTHQGLSSPVTKSFNRGEC
notes: also called hu-cy23B12; Cynoized anti hTSLP mAb 23B12 (huV-CynoC chimera)
B4: Humanized anti hu TSLP mAb 23B12 (VL Y49) (antibody, human IgG1, kappa)
heavy: not shown
light: EIVLTQSPGTLSLSPGERATLSCRASQPISISVHWYQQKPGQAPRLLIYFASQSISGIPDRFSGSGSGTDFTLTISRLEPEDFAVYYCQQTFSLPYTFGQGTKVEIKRTVAAPSVFIFPPSDEQLKSGTASVVCLLNNFYPREAKVQWKVDNALQSGNSQESVTEQDSKDSTYSLSSTLTLSKADYEKHKVYACEVTHQGLSSPVTKSFNRGEC
notes: also called hu23B12(VL Y49); hu23B12
B5: Humanized anti hu TSLP mAb 23B12 (VL K49) (antibody, human IgG1, kappa, V domains shown)
VH: QVQLVQSGAEVKKPGASVKVSCKASGYIFTDYAMHWVRQAPGQGLEWMGTFIPLLDTSDYNQNFKGRVTMTTDTSTSTAYMELRSLRSDDTAVYYCARMGVTHSYVMDAWGQGTLVTVSS
VL: EIVLTQSPGTLSLSPGERATLSCRASQPISISVHWYQQKPGQAPRLLIKFASQSISGIPDRFSGSGSGTDFTLTISRLEPEDFAVYYCQQTFSLPYTFGQGTKVEIKR
notes: Light chain variant of hu23B12 with K at position 49; human IgG1 / kappa; also called hu23B12(VL K49)
B6: Cyno-ized anti-human TSLP 23B12 antibody (antibody)
heavy: SQVQLVESGGGVVQPGRSLRLSCAASGYIFTDYAMHWVRQAPGKGLEWVATFIPLLDTSDYNQNFKGRFTISRDNSKNTLYLQMNSLRAEDTAVYYCARMGVTHSYVMDAWGQGTLVTVSSASTKGPSVFPLAPSSRSTSESTAALGCLVKDYFPEPVTVSWNSGSLTSGVHTFPAVLQSSGLYSLSSVVTVPSSSLGTQTYVCNVNHKPSNTKVDKRVEIKTCGGGSKPPTCPPCPAPELLGGPSVFLFPPKPKDTLMISRTPEVTCVVVDVSQEDPDVKFNWYVNGAEVHHAQTKPRETQYNSTYRVVSVLTVTHQDWLNGKEYTCKVSNKALPAPIQKTISKDKGQPREPQVYTLPPSREELTKNQVSLTCLVKGFYPSDIVVEWESSGQPENTYKTTPPVLDSDGSYFLYSKLTVDKSRWQQGNVFSCSVMHEALHNHYTQKSLSLSPGK
light: DIQMTQSPSSLSASVGDRVTITCRASQPISISVHWYQQKPGKAPKLLIYFASQSISGVPSRFSGSGSGTDFTLTISSLQPEDFATYYCQQTFSLPYTFGQGTKVEIKRTVAAPSVFIFPPSEDQVKSGTVSVVCLLNNFYPREASVKWKVDGVLKTGNSQESVTEQDSKDNTYSLSSTLTLSSTDYQSHNVYACEVTHQGLSSPVTKSFNRGEC
notes: Rat 23B12 CDRs on human VL kappa-I / VH-III frameworks fused to cynomolgus IgG constant domains, produced in CHO cells; also called cy23B12; Cynoized anti hTSLP mAb 23B12 (782+MAFA19/781MAFA7)

Tests used:
[1] = biological target: T1, Recombinant human TSLP, expressed in E. coli (human, UniProt Q969D9 29-159); experiment: KinExA, solution equilibrium, beads coated with biotinylated human TSLP; antigen R&D Systems 1398-TS
T1 construct: also called human TSLP E. coli; E. coli-B (biotinylated)

[2] = biological target: T2, Human TSLP (expression host not stated) (human, UniProt Q969D9 29-159); experiment: cell-based or functional assay
Cynomolgus monkey TSLP [3] = biological target: T3, Cynomolgus monkey TSLP (cynomolgus monkey, UniProt A0A7N9CAT7 29-159); experiment: SPR, BIAcore T100, as in Example 5 (TSLP immobilized)
T3 construct: also called cyno TSLP; cynoTSLP

[4] = biological target: T2, Human TSLP (expression host not stated, …); experiment: as above
[5] = biological target: T4, Recombinant human TSLP, expressed in HEK293 (human, UniProt Q969D9 29-159); experiment: ELISA, mean of the 3 rows above (HEK293-B, HEK293, HEK293-F); mean of n = 3: HEK293-B, HEK293 and HEK293-F human TSLP
T4 construct: also called human TSLP HEK293; HEK293-B (biotinylated)

Cynomolgus monkey TSLP [6] = biological target: T3, Cynomolgus monkey TSLP; experiment: cell-based or functional assay
[7] = biological target: T1, Recombinant human TSLP, expressed in E. …; experiment: cell-based or functional assay
[8] = biological target: T4, Recombinant human TSLP, expressed in …; experiment: cell-based or functional assay
[9] = biological target: T1, Recombinant human TSLP, expressed in E. …; experiment: ELISA, TSLP coated on plate, antibody titrated; E. coli-B (biotinylated TSLP)
[10] = biological target: T4, Recombinant human TSLP, expressed in …; experiment: ELISA, TSLP coated on plate, antibody titrated; HEK293
[11] = biological target: T2, Human TSLP (expression host not stated, …); experiment: ELISA, mean of all 5 rows on human TSLP (HEK293 and E. coli pooled)
Cynomolgus monkey TSLP [12] = biological target: T3, Cynomolgus monkey TSLP; experiment: SPR, BIAcore T100, TSLP amine-coupled to CM5 chip, antibody injected, bivalent analyte model
[13] = biological target: T2, Human TSLP (expression host not stated, …); experiment: as above
[14] = biological target: T4, Recombinant human TSLP, expressed in …; experiment: ELISA, TSLP coated on plate, antibody titrated; HEK293-B (biotinylated TSLP)
[15] = biological target: T1, Recombinant human TSLP, expressed in E. …; experiment: KinExA, solution equilibrium, beads coated with biotinylated human TSLP; antigen R&D Systems 1398-TS; KinExA, not BIAcore
[16] = biological target: T4, Recombinant human TSLP, expressed in …; experiment: KinExA, solution equilibrium, beads coated with biotinylated human TSLP; TSLP from HEK293
[17] = biological target: T1, Recombinant human TSLP, expressed in E. …; experiment: KinExA, solution equilibrium, beads coated with biotinylated human TSLP; TSLP from E. coli
[18] = biological target: T2, Human TSLP (expression host not stated, …); experiment: ELISA, mean of all 19 rows on human TSLP (HEK293 and E. coli pooled)
[19] = biological target: T1, Recombinant human TSLP, expressed in E. …; experiment: ELISA, direct coat of 200 ng TSLP instead of 100 ng, antibody titrated; E. coli
[20] = biological target: T1, Recombinant human TSLP, expressed in E. …; experiment: ELISA, TSLP coated on plate, antibody titrated; E. coli
[21] = biological target: T4, Recombinant human TSLP, expressed in …; experiment: ELISA, mean of the 12 rows above (HEK293, including HEK293-B and HEK293-F)
Cynomolgus monkey TSLP [22] = biological target: T3, Cynomolgus monkey TSLP; experiment: ELISA, mean of the 6 rows above (cyno TSLP from HEK293)
[23] = biological target: T1, Recombinant human TSLP, expressed in E. …; experiment: ELISA, mean of the 7 rows above (E. coli, including E. coli-B)
[24] = biological target: T4, Recombinant human TSLP, expressed in …; experiment: ELISA, direct coat of 200 ng TSLP instead of 100 ng, antibody titrated; HEK293
[25] = biological target: T2, Human TSLP (expression host not stated, …); experiment: ELISA, mean of the 5 rows above on human TSLP (HEK293 and E. coli pooled)
[26] = biological target: T2, Human TSLP (expression host not stated, …); experiment: summary of Tables 10 and 11 (BIAcore, KinExA, Ba/F3 assay)

Binder	Kd [1]	EC50, inhibition of TSLP-induced proliferation of Ba/F3 transfectants; TSLP hu, TSLPR hu [2]	Kd (Cynomolgus monkey TSLP [3])	Kd [4]	EC50 [9]	EC50 [10]	Kd (Cynomolgus monkey TSLP [12])	Kd [13]	EC50 [14]	Kd [16]	Kd [17]	also measured
B1	63 pM	3900 pM	1200 pM	556 pM								
B2			86 pM and 112 pM	64 pM and 126 pM and 114 pM	400 pM and 390 pM	370 pM	86 pM	64 pM	790 pM	0.22 pM	0.47 pM	EC50 [5]: 470 pM; EC50 (mean of the 4 rows above), inhibition of TSLP-induced proliferation of Ba/F3-TSLPR-IL7Ra cells; TSLP cyno, HEK293 (Cynomolgus monkey TSLP [6]): 560 pM; EC50, inhibition of TSLP-induced proliferation of Ba/F3-TSLPR-IL7Ra cells (Alamar Blue); TSLP cyno, HEK293 (Cynomolgus monkey TSLP [6]): 450 pM and 420 pM and 610 pM and 770 pM; EC50 (mean of the 8 rows above), inhibition of TSLP-induced proliferation of Ba/F3-TSLPR-IL7Ra cells; TSLP human, E. coli [7]: 3010 pM; EC50 (mean of the 5 rows above), inhibition of TSLP-induced proliferation of Ba/F3-TSLPR-IL7Ra cells; TSLP human, HEK293 [8]: 110 pM; EC50 [11]: 440 pM; Kd [15]: 0.47 pM
B3	1.4 pM	5300 pM	114 pM	106 pM								
B4	1.7 pM	7600 pM	132 pM	111 pM	64 pM and 85 pM		132 pM	111 pM	220 pM	2.1 pM	1.7 pM	EC50 [18]: 110 pM; EC50 [19]: 61 pM and 29 pM; EC50 [20]: 110 pM and 60 pM; EC50 [21]: 140 pM; EC50 (Cynomolgus monkey TSLP [22]): 310 pM; EC50 [23]: 70 pM; EC50 [24]: 73 pM
B5					38 pM and 50 pM	34 pM			120 pM	1 pM		EC50 [25]: 50 pM
B6	52 pM		1160 pM and 2510 pM									fold reduction in binding against hu23B12 [26]: 5 fold; fold reduction in binding against parental rat 23B12 [26]: 10 fold; EC50, inhibition of TSLP-induced proliferation of Ba/F3 transfectants; TSLP hu, TSLPR cyno [2]: 30 pM and 50 pM
